Source: publication PMC8020832

Biological target: 18 Env antigens
Experiment: ELISA

Binder | mean fold change in ELISA binding titer (OD450) versus parental 2411a [fold]
2411a revertant of heavy chain Y33V/M34L (CDR H1) (antibody, V domains shown) VH: QVQLVQSGAEMKKPGASVRVSCEASGYTFTDYYMHWMRQAPGQGIEWLGWIKPRYGAVNYAHKFQGRVSMTRDTSIDTAYLELINLRSDDTAIYYCARSFDSDYEWWFTYWGQGTLVSVSA VL: EIVLTQSPGTLSLSPGERATLSCRASYFISRDYLAWYQQRPGQAPKLLIYGTTTRASGIPDRFSGSGSGTDFTLTISRLEPEDFAVYYCQQYEFFGLGTKVEIK | 3.9
2411a revertant of light chain Q27Y (CDR L1) (antibody, V domains shown) VH: QVQLVQSGAEMKKPGASVRVSCEASGYTFTDYVLHWMRQAPGQGIEWLGWIKPRYGAVNYAHKFQGRVSMTRDTSIDTAYLELINLRSDDTAIYYCARSFDSDYEWWFTYWGQGTLVSVSA VL: EIVLTQSPGTLSLSPGERATLSCRASQFISRDYLAWYQQRPGQAPKLLIYGTTTRASGIPDRFSGSGSGTDFTLTISRLEPEDFAVYYCQQYEFFGLGTKVEIK | 1.8
2411a revertant of heavy chain G56A/T57V (CDR H2) (antibody, V domains shown) VH: QVQLVQSGAEMKKPGASVRVSCEASGYTFTDYVLHWMRQAPGQGIEWLGWIKPRYGGTNYAHKFQGRVSMTRDTSIDTAYLELINLRSDDTAIYYCARSFDSDYEWWFTYWGQGTLVSVSA VL: EIVLTQSPGTLSLSPGERATLSCRASYFISRDYLAWYQQRPGQAPKLLIYGTTTRASGIPDRFSGSGSGTDFTLTISRLEPEDFAVYYCQQYEFFGLGTKVEIK | 5.5
2411a revertant of light chain S27aF (CDR L1) (antibody, V domains shown) VH: QVQLVQSGAEMKKPGASVRVSCEASGYTFTDYVLHWMRQAPGQGIEWLGWIKPRYGAVNYAHKFQGRVSMTRDTSIDTAYLELINLRSDDTAIYYCARSFDSDYEWWFTYWGQGTLVSVSA VL: EIVLTQSPGTLSLSPGERATLSCRASYSISRDYLAWYQQRPGQAPKLLIYGTTTRASGIPDRFSGSGSGTDFTLTISRLEPEDFAVYYCQQYEFFGLGTKVEIK | 1.6
2411a revertant of heavy chain Q61H (CDR H2) (antibody, V domains shown) VH: QVQLVQSGAEMKKPGASVRVSCEASGYTFTDYVLHWMRQAPGQGIEWLGWIKPRYGAVNYAQKFQGRVSMTRDTSIDTAYLELINLRSDDTAIYYCARSFDSDYEWWFTYWGQGTLVSVSA VL: EIVLTQSPGTLSLSPGERATLSCRASYFISRDYLAWYQQRPGQAPKLLIYGTTTRASGIPDRFSGSGSGTDFTLTISRLEPEDFAVYYCQQYEFFGLGTKVEIK | 1.4
2411a revertant of heavy chain N52K (CDR H2) (antibody, V domains shown) VH: QVQLVQSGAEMKKPGASVRVSCEASGYTFTDYVLHWMRQAPGQGIEWLGWINPRYGAVNYAHKFQGRVSMTRDTSIDTAYLELINLRSDDTAIYYCARSFDSDYEWWFTYWGQGTLVSVSA VL: EIVLTQSPGTLSLSPGERATLSCRASYFISRDYLAWYQQRPGQAPKLLIYGTTTRASGIPDRFSGSGSGTDFTLTISRLEPEDFAVYYCQQYEFFGLGTKVEIK | 5.4
2411a revertant of heavy chain N53R/S54Y (CDR H2) (antibody, V domains shown) VH: QVQLVQSGAEMKKPGASVRVSCEASGYTFTDYVLHWMRQAPGQGIEWLGWIKPNSGAVNYAHKFQGRVSMTRDTSIDTAYLELINLRSDDTAIYYCARSFDSDYEWWFTYWGQGTLVSVSA VL: EIVLTQSPGTLSLSPGERATLSCRASYFISRDYLAWYQQRPGQAPKLLIYGTTTRASGIPDRFSGSGSGTDFTLTISRLEPEDFAVYYCQQYEFFGLGTKVEIK | 6.5
